According to patent US20240425593A1 (SICHUAN KELUN BIOTECH BIOPHARMACEUTICAL, published 2024):
Changes are numbered by the printed parent chain. Names may count otherwise.

T1: monkey PD-1-hFc (monkey)
T1 construct: Extracellular domain of monkey PD-1 fused to an hFc tag, made in house; not shown: The hFc tag and any linker
T1 chain: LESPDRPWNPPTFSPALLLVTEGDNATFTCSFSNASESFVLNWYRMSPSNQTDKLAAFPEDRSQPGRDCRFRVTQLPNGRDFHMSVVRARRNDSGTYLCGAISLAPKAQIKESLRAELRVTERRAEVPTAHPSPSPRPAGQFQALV

B1: humanized antibody 91D5-HZ1 (antibody, human IgG4 S228P, kappa, V domains shown)
VH: EVQLVQSGAEVKKPGASVKVSCKASGYTFTDYYMNWVREAPGQGLEWMGEINPKYGDTTYAQKLQGRVTLTVDKSTSTAYMELSSLRSDDTAVYYCAKGIRLFDSWGQGTLVTVSS
VL: DIQLTQSPSSLSASVGDRVTITCRPSGNVHNYFAWYQQKPGKSPKLLVYNAKTLAEGVPSRFSGSGSGTDYTLTISSLQPEDFATYYCHHYYTAPFTFGGGTKVEIKR
B2: humanized antibody 91D5-HZ2 (antibody, human IgG4 S228P, kappa)
heavy: not shown
light: DIQLTQSPSSLSASVGDRVTITCRPSGNVHNYFAWYQQKPGKSPKLLVYNAKTLAEGVPSRFSGSGSGTDYTLTISSLQPEDFATYYCHHYYTAPFTFGGGTKVEIKRTVAAPSVFIFPPSDEQLKSGTASVVCLLNNFYPREAKVQWKVDNALQSGNSQESVTEQDSKDSTYSLSSTLTLSKADYEKHKVYACEVTHQGLSSPVTKSFNRGEC
B3: chimeric antibody 14A4-CH (antibody, human IgG4 S228P, kappa, V domains shown)
VH: EVQLVESGGGLVKPGGSLKLSCAASGFTFSSYGMSWGRQTPEKRLEWVATISGGGSDTYYPDSVKGRFTISRDNVKNNLYLQMSSLRSEDTALYYCARQYGITWFAYWGQGTLVTVSA
VL: not shown
notes: Murine 14A4 variable regions fused to the IgG4 (S228P) heavy chain constant region and the human kappa constant region
B4: humanized antibody 29C6-HZ1 (antibody, human IgG4 S228P, kappa, V domains shown)
VH: QVQLVQSGAEVKKPGASVKVSCKTSGYTFTEYTIYWVRQAPGQGLEWIGGINPKNGATLYNQKFQGRVTLTVDKSTSTAYMELRSLRSDDTAVYYCVRDYHGNSHDSMDYWGQGTLVTVSS
VL: EIVLTQSPATLSLSPGERATLSCSASSSVSYMHWFQQKPGQAPRLWIYYTSNLASGVPARFSGSGSGTDYTLTISSLEPEDFAVYYCQQRSDYPPTFGGGTKVEIKR
B5: humanized antibody 29C6-HZ2 (antibody, human IgG4 S228P, kappa, V domains shown)
VH: B4 VH with A9V, Q65K, G66V, V68A, S77T, R84K, R87Q, S88F, L116T
VL: B4 VL with W46L
B6: chimeric antibody 35E6-CH (antibody, human IgG4 S228P, kappa)
heavy: not shown
light: CIVLTQSPASLAVSLGQSVTISCRASESVEYYGTNLMQWYQQKPGQPPKLLIYFASNVASGVPARFSGSGSGTDFSLNIHPVEGDDIARYFCQQSKKVPSTFGGGTKLEIKRTVAAPSVFIFPPSDEQLKSGTASVVCLLNNFYPREAKVQWKVDNALQSGNSQESVTEQDSKDSTYSLSSTLTLSKADYEKHKVYACEVTHQGLSSPVTKSFNRGEC
notes: Murine 35E6 variable regions fused to the IgG4 (S228P) heavy chain constant region and the human kappa constant region
B7: chimeric antibody 91D5-CH (antibody, human IgG4 S228P, kappa, V domains shown)
VH: EVQLQQSGPELVKPGASVKISCRASGYTFTDYYMNWVKESHGKSLEWIGEINPKYGDTTYNQKFKDKATLTVDKSSSTASVELRSLTSEDSAVYYCAKGIRLFDSWGQGTTVTVSS
VL: DIQLTQSPASLSASVGETVTITCRPSGNVHNYFAWYQQKQGKSPQLLVYNAKTLAEGVPSRFSGSGSGTQYSLKINSLQPEDFGTYYCHHYYTAPFTFGSGTKLEIKR
notes: Murine 91D5 variable regions fused to the IgG4 (S228P) heavy chain constant region and the human kappa constant region
B8: humanized antibody 35E6-HZ1 (antibody, human IgG4 S228P, kappa)
heavy: not shown
light: EIVLTQSPATLSLSPGERATLSCRASESVEYYGTNLMQWYQQKPGQPPRLLIYFASNVASGIPARFSGSGSGTDFTLTISSLEPEDFAVYFCQQSKKVPSTFGQGTKVEIKRTVAAPSVFIFPPSDEQLKSGTASVVCLLNNFYPREAKVQWKVDNALQSGNSQESVTEQDSKDSTYSLSSTLTLSKADYEKHKVYACEVTHQGLSSPVTKSFNRGEC

How the values were obtained:
human PD-1-His [1] = target: T2, human PD-1-His (human, UniProt Q15116 25-170); assay: ELISA, coated human PD-1-his
T2 construct: extracellular domain; not shown: His tag
Method: (§1) To verify the affinity of the humanized PD-1 antibody to PD-1-His antigen, ELISA was employed. The specific experimental steps were as follows: human PD-1-his was diluted to 1 μg/mL with CBS solution, then coated on a 96-well ELISA plate (purchased from Guangzhou Jiete Bio) at 4° C. overnight. […] After washing, a goat anti-mouse secondary antibody (FC) labeled with horseradish peroxidase diluted in phosphate buffer (PBS) containing 2% BSA in a ratio of 1:15000 was added, followed by incubating at 37° C. for 1 hour. After washing, the TMB chromogen solution was used for developing, and the absorbance value was read using a microplate reader at 450 nm. The data were imported into Graphprism to calculate EC₅₀ values.

human PD-1-hFc [2] = target: T3, human PD-1-hFc (human, UniProt Q15116 25-170); assay: competitive ELISA, coated PD-1-hFc, competitor PDL1-mFc
T3 construct: extracellular domain; Extracellular domain of human PD-1 fused to an hFc tag, made in house; not shown: hFc tag
Method: (§2) The specific experimental steps were as follows: human PD-1-hFc was diluted to 1 μg/mL with CBS solution, coated on a 96-well ELISA plate (purchased from Guangzhou Jiete Bio) at 4° C. overnight. After washing, 100 μL of phosphate buffer (PBS) containing 2% BSA was used for blocking at 37° C. for 1 hour. […] After washing, a goat anti-mouse secondary antibody labeled with HRP diluted in phosphate buffer (PBS) containing 2% BSA in a ratio of 1:15000 was added, followed by incubating at room temperature for 1 hour. After washing, the TMB chromogen solution was used for developing, and the absorbance value was read using a microplate reader at 450 nm, and the data were imported into Graphprism to calculate ICs values.

human PD-1-hFc [3] = target: T3, human PD-1-hFc; assay: competitive ELISA, coated PD-1-hFc, competitor PDL2-mFc
Method: as §2

human PD-1-His [4] = target: T2, human PD-1-His; assay: BLI (Octet ForteBio), antibody on ProA biosensor, PD-1-His in solution
[5] = target: T4, PD-1 on Jurkat-PD-1-NFAT cells (UniProt Q15116 25-288, limits assumed); assay: cell-based or functional assay
[6] = target: T4, PD-1 on Jurkat-PD-1-NFAT cells; assay: cell-based or functional assay; remark: listed apart in the source
monkey PD-1-hFc = target: T1, monkey PD-1-hFc; assay: ELISA, coated monkey PD-1-hFc
Method: as §1, with “The” for “To verify the affinity of the humanized PD-1 antibody to PD-1-His antigen, ELISA was employed. The”, “PD-1-hFc and monkey PD-1-hFc antigens were” for “PD-1-his was”, “anti-human” for “anti-mouse”, “nm, and the” for “nm. The”

human PD-1-His [7] = target: T2, human PD-1-His; assay: BLI (Octet ForteBio), human PD-1-His
[8] = target: T5, full-length human PD-1 on CHO-hPD-1 cells (human, UniProt Q15116 25-288); assay: competitive FACS on CHO-hPD-1 cells, competitor PD-L1-mFc-Bio
T5 construct: whole, on cells; also called PD-1 on the cell membrane surface of CHO-hPD-1
Description: The data were imported into Graphprism to calculate IC₅₀ values.

human PD-1-hFc [9] = target: T3, human PD-1-hFc; assay: competitive ELISA, coated human PD-1-hFc, competitor hPD-L1-mFc
Method: as §2

human PD-1-hFc [10] = target: T3, human PD-1-hFc; assay: competitive ELISA, coated human PD-1-hFc, competitor hPD-L2-mFc
Method: as §2

human PD-1-His [11] = target: T2, human PD-1-His; assay: BLI (Octet ForteBio), antibody on ProA biosensor, human PD-1-His in solution
human PD-1-ECD-mFc = target: T6, human PD-1-ECD-mFc (human; mouse, UniProt Q15116 25-170); assay: ELISA, coated antigen (column head: Human PD-1-mFc; text of Example 4.2: human PD-1-hFc)
T6 construct: extracellular domain; Made in HEK293F cells; also called human PD-1-mFc; PD-1-mFc; not shown: mouse Fc (mFc) amino acids, AB097847.1
Method: as §1, with “The” for “To verify the affinity of the humanized PD-1 antibody to PD-1-His antigen, ELISA was employed. The”, “PD-1-hFc and monkey PD-1-hFc antigens were” for “PD-1-his was”, “anti-human” for “anti-mouse”, “nm, and the” for “nm. The”

| Binder | EC50 (human PD-1-His [1]) [nM] | IC50 (human PD-1-hFc [2]) [nM] | IC50 (human PD-1-hFc [3]) [nM] | Kd (human PD-1-His [4]) [nM] | koff (human PD-1-His [4]) [s⁻¹] | kon (human PD-1-His [4]) [M⁻¹ s⁻¹] | EC50 from the PD-1/PD-L1 luciferase reporter system [5] [nM] | EC50 (nM), cell activity for blocking PD-1/PD-L1 binding, luciferase reporter gene assay [6] [nM] | EC50 (monkey PD-1-hFc) [nM] | fold stronger affinity than the control antibody 1 (human PD-1-His [7]) [times] | IC50 [8] [ng/mL] | IC50 (human PD-1-hFc [9]) [nM] | IC50 (human PD-1-hFc [10]) [nM] | Kd (human PD-1-His [11]) [nM] | koff (human PD-1-His [11]) [s⁻¹] | kon (human PD-1-His [11]) [M⁻¹ s⁻¹] | EC50 (human PD-1-ECD-mFc) [nM] |
| --- | --- | --- | --- | --- | --- | --- | --- | --- | --- | --- | --- | --- | --- | --- | --- | --- | --- |
| B1 | 0.39 | 1.19 | 1.25 | 1.89 | 0.00053 | 281000 | – | – | – | – | – | – | – | – | – | – | – |
| B2 | 0.42 | 1.13 | 1.22 | 1.5 | 0.000472 | 315000 | 4.47 | – | – | – | – | – | – | – | – | – | – |
| B3 | – | – | – | – | – | – | – | 8.4 | 0.171 | 4.3 | 0.75 | 1.12 | 1.17 | 1.49 | 0.000206 | 138000 | 0.082 |
| B4 | 0.42 | 3.11 | 3.63 | – | – | – | – | – | – | – | – | – | – | – | – | – | – |
| B5 | 0.16 | 0.88 | 0.95 | 1.65 | 0.000454 | 275000 | 5.74 | – | – | – | – | – | – | – | – | – | – |
| B6 | 0.2 | 0.88 | 1.11 | – | – | – | – | 5.53 | 0.198 | 15.4 | 1.58 | 1.6 | 1.78 | 0.416 | 0.000123 | 296000 | 0.103 |
| B7 | 0.29 | 0.96 | 1.08 | 0.547 | 0.000177 | 324000 | – | 4.41 | 0.235 | 11.7 | 0.96 | 1.23 | 1.39 | 0.549 | 0.000143 | 261000 | 0.09 |
| B8 | 0.3 | 0.94 | 1.15 | 1.31 | 0.000517 | 395000 | 3.63 | – | – | – | – | – | – | – | – | – | – |
